Like-named read-outs stand apart in the source and are kept apart here. Values belong to the substance of their own block, whether it stands above or below them.
Experiments:
[1] = molecular target: T1, fibrin (Homo sapiens, UniProt P02671+P02675+P02679); experiment: Two-stage fibrin pad ELISA, Scatchard and van't Hoff analysis; format: binding; conditions: for Avidity: Kassoc × no. ligand molecules/liposome; for Kassoc: detergent-treated preparation
T1 construct: purchased Calbiochem (EMD Biosciences, Inc., La Jolla, Calif.)
T1 sequence (P02671 36-629 limits assumed): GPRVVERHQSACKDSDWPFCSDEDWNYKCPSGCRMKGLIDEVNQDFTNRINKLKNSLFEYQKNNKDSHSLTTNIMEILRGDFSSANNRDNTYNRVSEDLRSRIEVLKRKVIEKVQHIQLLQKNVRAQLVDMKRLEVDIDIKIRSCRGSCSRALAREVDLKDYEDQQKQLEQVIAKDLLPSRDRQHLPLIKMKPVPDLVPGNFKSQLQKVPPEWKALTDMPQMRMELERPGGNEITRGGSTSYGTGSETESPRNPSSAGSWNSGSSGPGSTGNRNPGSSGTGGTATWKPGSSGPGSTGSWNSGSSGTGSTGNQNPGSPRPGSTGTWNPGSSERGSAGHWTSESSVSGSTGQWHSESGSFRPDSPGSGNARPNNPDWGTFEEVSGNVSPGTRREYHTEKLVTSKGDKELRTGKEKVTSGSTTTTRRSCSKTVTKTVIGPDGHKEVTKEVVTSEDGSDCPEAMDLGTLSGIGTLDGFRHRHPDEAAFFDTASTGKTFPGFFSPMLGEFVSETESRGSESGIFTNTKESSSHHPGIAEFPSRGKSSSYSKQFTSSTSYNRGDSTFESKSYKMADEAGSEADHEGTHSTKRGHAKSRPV
T1 sequence (P02675 45-491 limits assumed): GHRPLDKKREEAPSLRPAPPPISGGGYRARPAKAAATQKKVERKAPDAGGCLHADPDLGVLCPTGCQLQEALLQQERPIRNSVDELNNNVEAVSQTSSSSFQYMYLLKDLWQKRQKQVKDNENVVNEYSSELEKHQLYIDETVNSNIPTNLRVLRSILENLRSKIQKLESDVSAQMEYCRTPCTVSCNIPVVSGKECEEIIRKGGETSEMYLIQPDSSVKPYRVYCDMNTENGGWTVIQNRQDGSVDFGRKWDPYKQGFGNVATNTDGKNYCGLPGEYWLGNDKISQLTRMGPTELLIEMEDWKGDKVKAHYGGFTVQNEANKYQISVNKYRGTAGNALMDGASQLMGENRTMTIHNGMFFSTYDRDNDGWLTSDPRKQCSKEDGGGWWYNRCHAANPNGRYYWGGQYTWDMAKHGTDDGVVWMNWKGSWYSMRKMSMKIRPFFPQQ
T1 sequence (P02679 27-437 isoform P02679-2 limits assumed): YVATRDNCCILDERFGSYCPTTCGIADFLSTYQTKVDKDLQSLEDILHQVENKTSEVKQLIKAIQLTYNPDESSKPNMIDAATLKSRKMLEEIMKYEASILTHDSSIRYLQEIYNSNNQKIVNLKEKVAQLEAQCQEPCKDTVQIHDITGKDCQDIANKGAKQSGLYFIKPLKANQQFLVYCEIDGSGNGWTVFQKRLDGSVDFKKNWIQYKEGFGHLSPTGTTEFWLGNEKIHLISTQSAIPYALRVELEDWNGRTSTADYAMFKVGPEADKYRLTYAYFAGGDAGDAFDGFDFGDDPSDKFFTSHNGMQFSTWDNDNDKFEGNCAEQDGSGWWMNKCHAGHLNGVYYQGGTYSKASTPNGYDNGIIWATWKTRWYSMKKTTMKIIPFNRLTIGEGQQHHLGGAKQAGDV
Protocol: Added 100 μl 0.2% BSA/PBS to each well and incubated at 37° C. for 1 hour. All subsequent incubations were also at 37° C. Aspirated the wells and washed the plate 3× with PBS-T. Added Activase dilutions (10, 5, 2.5, 1.25, and 0.625 μg/ml PBS-T) to replicate wells ([…]). Incubated for 2 hours. Removed the contents of each well and pooled all samples within each dilution. Stored pooled samples at 4° C. For tPA-ELIP dilutions (in PBS), the third wash before adding the samples was with PBS. Stored the pooled tPA-ELIP samples in polypropylene tubes.
Added monoclonal anti-tPA capture antibody (Ab) (5 μg/ml coating buffer; […]) to rows B, C, E and G of a fresh microplate. Incubated in a humidified chamber at 4° C. overnight. All subsequent incubations were in humidified chambers at 37° C. at volumes of 50 μl/well, followed by aspiration of wells and 3× washes with PBS-T. Blocked all rows with conjugate buffer for 1 hour. Added tPA standards (50, 25, 12.5, 6.25 and 3.13 ng/ml) and pooled sample dilutions (in PBS-T) in duplicate to sample (B, C, E, G) and background (A, D, F, H) wells. Incubated for 2 hours. Added secondary detection Ab (10 μg sheep anti-tPA/ml 0.1% BSA in PBS-T) to all wells and incubated 1 hour, followed by a conjugate incubation (3,000× diluted with conjugate buffer; 1 hour). Added 50 μl of substrate buffer+500 of substrate (1 tablet/5 ml substrate buffer) to each well. Incubated at 37° for 15 minutes. Immediately quenched with 5 μl of 1M sodium hydroxide/well. Read the plate at 405 nm. Determined net absorbance (A405) by subtracting background OD from sample OD (e.g., B4-A4 or E7-F7).
Calculated the undiluted tPA concentrations of each pooled sample from the standard curve. These represented the free fractions ([F]) of the sample dilutions after equilibrium incubation with fibrin. Obtained the bound concentrations ([B]) by subtracting the free values from the total tPA concentration of the starting dilutions. Prepared Scatchard plots by plotting [B] (x-axis) vs. B/F (y-axis). The slope=−Kassoc and the y-intercept=Kassoc[n], where [n] was the concentration of exposed tPA binding sites on the fibrin pads.
Dilutions of untreated, sham-treated (control) and PPACK-treated (tPA(P)) tPA, as well as tPA(P) conjugated to ELIP (tPA(P)-ELIP), were incubated on replicate fibrin pads, prepared in microplate wells according to a modification of the method of Edgell et al. (1996). Human thrombin was added to a solution of 0.5 mg/ml of human fibrinogen in 0.02M phosphate-buffered saline, pH 7.4 (PBS), to a final concentration of 0.125 IU thrombin/ml; 100 μl of this solution was immediately added to each well and incubated at 37° C. for 45 minutes, followed by overnight drying of the plate at 45° C. After incubation with 100 μl/well of 0.2% BSA in PBS for 1 hour, samples (100 μl/well) were incubated for 2 hours at 37° C. For thermodynamic analyses, this incubation was performed at three temperatures (5, 24 and 37° C.). In order to determine the concentration of free tPA remaining in solution after incubation of tPA with fibrin, from which the concentration of bound tPA could be calculated for Scatchard analysis, the contents of duplicate wells were recovered, pooled and subsequently assayed for immunoreactive tPA in a standard quantitative sandwich ELISA.
Briefly, Nunc MaxiSorp microtiter plates were coated with 5 μg/ml of a monoclonal anti-tPA capture antibody (Ab) in 0.05M sodium bicarbonate, pH 9.6, overnight at 4° C. All incubation volumes were 50 μl/well. One-half of wells were left uncoated for determination of nonspecific binding. After aspirating well contents, all wells were blocked with conjugate buffer (1% BSA in 0.05M Tris buffer, pH 8.0, with 0.02% sodium azide) for 1 hour. From this point, all incubations were at 37° C. Each incubation was followed by aspiration of well contents and washes (3×) with PBS-T (PBS with 0.05% Tween 20). […]

[2] = molecular target: T1, fibrin; experiment: as above; conditions: undiluted fresh-frozen rabbit serum, 37° C.; read-out: binding affinity (KD) in serum
[3] = tPA enzyme activity after PPACK inactivation, paranitroanilide-substrate method; format: biochemical; conditions: S.E., n=3
Protocol: Reconstituted tPA was incubated with a fivefold molar excess of PPACK in 0.2 M L-arginine in 0.05M phosphate buffer, pH 7.2, with 0.01% Tween 20 for 1 hour at room temperature, followed by dialysis against reaction buffer to remove unreacted PPACK. A control preparation was carried through the procedure without PPACK and all procedures involving PPACK were protected from light. Enzyme activity in PPACK-treated and control tPA preparations was measured with a […] paranitroanilide-substrate method (Ranby and Wallen, 1981).

Avidity ([1]; +Tween 20): 0.151 M^−1/LIP × 10^12
Avidity ([1]; No Detergent): 0.480 M^−1/LIP × 10^12
ΔS° ([1]; high affinity only): +14.7 cal/mole°
ΔG° ([1]; high affinity only, 278 K): -11.1 kcal/mol
Kassoc ([1]; high affinity only, 278 K): 5.83e+08 M⁻¹
ΔG° ([1]; high affinity only, 297 K): -11.5 kcal/mol
Kassoc ([1]; high affinity only, 297 K): 3.01e+08 M⁻¹
ΔG° ([1]; high affinity only, 310 K): -11.6 kcal/mol
Kassoc ([1]; high affinity only, 310 K): 1.51e+08 M⁻¹
ΔH° ([1]; high affinity only, van't Hoff plot): -7.08 kcal/mol
Kd ([1]; thiolation buffers: +Tween 20, read-out: KD @ 37° C.): 6.62 nM
Kd ([1]; thiolation buffers: No Detergent, read-out: KD @ 37° C.): 1.9 nM
Kd [2]: 3.91 nM
Substance: tPA(P)-ELIP: PPACK-inactivated tPA conjugated by thioether linkage to MPB-ELIP (PC:MPB-PE:DPPG:CH 69:8:8:15); made without detergent or with 0.01% Tween 20

Percent Starting Activity [3]: 99.8%
Kd ([1]; S.E., n=3, read-out: High-Affinity KD @ 37° C.): 5.92 nM
Substance: Sham (Control): tPA control preparation carried through the inactivation procedure without PPACK [reference compound]

cross-reactivity with fibrin ([1]; competition with tPA samples, Example 12): 5%
Substance: Fibrinogen [reference compound]

Source: patent publication US9814672B2, “Echogenic vehicle for clinical delivery of plasminogen activator and other fibrin-binding therapeutics to thrombi” (priority 2007, dated 2017)
